From publication PMC9600267, “The Antibacterial Type VII Secretion System of Bacillus subtilis: Structure and Interactions of the Pseudokinase YukC/EssB” (mBio, 2022)

Biological target: the molecule itself
Assay: crystal structure; hanging-drop vapor diffusion at 4°C; 20 mg/mL YukC413 in 25 mM HEPES pH 8, 175 mM NaCl, 0.04% Cymal-6 with 0.1 M MgCl2, 50 mM HEPES pH 7.5, 15% PEG 2000; molecular replacement

B1: YukC413 (YukC lacking the last 38 residues), Strep-tagged (pRSF/yukC413.strep) (domain or fragment, Bacillus subtilis 168, UniProt P71070 1-413, looked up)
chain: MSGEQKSYLENQLEAVAEKTDAGYTFTFQREKIKLLDGLEANVIKDINPFFHKEIDVTDDEVIITIQPPSSYKAFRFMKAKDKKSKWQFAYQLVQAVQQHNLSRLNLIVAPENIVFDKGLTPYFLHYGVKESIPPYERDEERVWQELKAAAALAVDGAFAFEDYLKFNETLTFSAEAKAILDAESYDDLLELIQTHIDELEAKAKTYIHIPRKKWNIQRYIGLGLIVLLVPALIYSMYALFFAQPKHQAIVDSNRAFLNKQYSEVISTLSKYDAESLPESVQYQLATSYVEVENLGSAKTKNIENNLVTLQSDPQHFLYWIDYGRGEYKEAISIGRKLEYNDYIYFALAKYKQQLLSEDTNDEDIQKELDSVNSELEKAQKERQENKQSNSETSLVDTSEEQTQTDEEKQAEE
notes: YukC (EssB) of Bacillus subtilis 168 lacking the last 38 residues at the C terminus; In the model 384 (chain A) and 377 (chain B) residues are assigned; source: E. coli BL21(DE3); purified from Cymal-6-solubilized membranes (StrepTrap, Superdex 200) for crystallization; coexpressed with YukE.his and solubilized with Triton X-100 for copurification
- binding result: binds
